Measured values: PMC7506551 (2020)

Molecular target: SMARCB1 (aa 169–385) (human, UniProt Q12824 169-385)
Test: ITC; second site (Kd2, two-site model)

SMARCB1 (aa 169–385), sequence (Q12824 169-385): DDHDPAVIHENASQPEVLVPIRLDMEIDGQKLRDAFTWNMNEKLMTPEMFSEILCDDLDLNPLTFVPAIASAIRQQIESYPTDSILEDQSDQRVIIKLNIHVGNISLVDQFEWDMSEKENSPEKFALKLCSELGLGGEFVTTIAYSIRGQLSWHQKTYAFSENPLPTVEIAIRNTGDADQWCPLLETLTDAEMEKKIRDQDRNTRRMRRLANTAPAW

- Kd: 1.96 nM
B1: SMARCC2 (aa 325–518) (domain or fragment)
chain: TKSKRGHREEEQEDLTKDMDEPSPVPNVEEVTLPKTVNTKKDSESAPVKGGTMTDLDEQEDESMETTGKDEDENSTGNKGEQTKNPDLHEDNVTEQTHHIIIPSYAAWFDYNSVHAIERRALPEFFNGKNKSKTPEIYLAYRNFMIDTYRLNPQEYLTSTACRRNLAGDVCAIMRVHAFLEQWGLINYQVDAES
